Assay [1] has as its system NA-19: N2 from A/Tanzania/205/2010 (82-469) S245NS247T.
Assay [2] concerns H7N7_NA_A_Ck_621572_03.
For assay [3], the system named is NA-18: N2 from A/Hong-Kong/2671/2019.
Assay [4] has as its system NA-17: N2 from A/South_Australia/34/2019.
Assay [5] deals with NA-1: N1 from A/Vietnam/1203/2004.
The test system of assay [6] is H5N6_NA_A_Hangzhou_01_2021.
For assay [7], the system named is NA-5: N2 from A/Tanzania/205/2010.
Assay [8] deals with H7N3_NA_A_Ck_Ja_PAVX17170_2017.
Assay [9] has as its system H7N9_NA_A_Anhui_1_2013.
In assay [10] the test system is NA-16: N2 from A/Switzerland/8060/2017.

B1: FNI9-v13.8 (protein)
heavy chain: QVQLVQSGAEVKEPGSSVTVSCKASGGSFNNQAISWVRQAPGQGLEWMGGIFPISGTPTSAQRFQGRVTFTADESTTTVYMDLSSLRSDDTAVYYCARAGSDYFNRDLGWENYYFASWGQGTLVTVSS
light chain: EIVMTQSPATLSVSPGERATLSCRASRSVSSNLAWYQQKPGQAPRLLIYDASTRATGFSARFAGSGSGTEFTLTISSLQSEDSAIYYCQQYNNWPPWTFGQGTKVEIK
Take B1: the “MUNANA vs NA antigens | F” value in assay [1] stood at 1073 µg/mL. The “ELLA vs pseudoviruses | K” value in assay [2] turned out to be 53.76 µg/mL. Further, the “MUNANA vs NA antigens | E” value in [3] was 832.7 µg/mL. For the same molecule, the “MUNANA vs NA antigens | D” value in assay [4] amounted to 80455 µg/mL. Moreover, the “MUNANA vs NA antigens | A” value in [5] is 30.6 µg/mL. Moreover, the “ELLA vs pseudoviruses | J” value in [6] was determined as 2.03 µg/mL. Further, in assay [7], the “MUNANA vs NA antigens | B” value amounted to 158.3 µg/mL. The “ELLA vs pseudoviruses | H” value in assay [8] worked out at 11.57 µg/mL. The “ELLA vs pseudoviruses | M” value in assay [9] was 1.701 µg/mL. For the same molecule, the “MUNANA vs NA antigens | C” value in assay [10] was 834.9 µg/mL.

Source of the values: patent US20260184814A1, “BROADLY NE[…] INFLUENZA NEURAMINIDASE” (priority 2022, published 2026).
